Data reported in patent US20120094280.

Assays:
[1] = molecular target: T1, M.HpaII DNA cytosine-C5 methyltransferase (UniProt P15446); conditions: formaldehyde; CCGG sites resistant to R.HpaII
T1 sequence: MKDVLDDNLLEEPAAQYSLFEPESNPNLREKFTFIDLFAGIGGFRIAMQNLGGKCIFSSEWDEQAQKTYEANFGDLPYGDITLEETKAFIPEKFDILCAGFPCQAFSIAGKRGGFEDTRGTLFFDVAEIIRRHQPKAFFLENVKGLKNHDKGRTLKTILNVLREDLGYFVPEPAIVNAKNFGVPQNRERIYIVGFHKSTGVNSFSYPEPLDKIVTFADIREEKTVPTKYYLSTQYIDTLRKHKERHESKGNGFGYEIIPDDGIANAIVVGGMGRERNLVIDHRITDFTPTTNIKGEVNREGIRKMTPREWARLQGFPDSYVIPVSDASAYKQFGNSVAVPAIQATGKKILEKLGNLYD

[2] = molecular target: M.SssI DNA cytosine-C5 methyltransferase (Spiroplasma sp.?) (UniProt P15840); conditions: formaldehyde; GCGC site resistant to R.Hin6I
M.SssI DNA cytosine-C5 methyltransferase (Spiroplasma sp.?), sequence (P15840 whole entry): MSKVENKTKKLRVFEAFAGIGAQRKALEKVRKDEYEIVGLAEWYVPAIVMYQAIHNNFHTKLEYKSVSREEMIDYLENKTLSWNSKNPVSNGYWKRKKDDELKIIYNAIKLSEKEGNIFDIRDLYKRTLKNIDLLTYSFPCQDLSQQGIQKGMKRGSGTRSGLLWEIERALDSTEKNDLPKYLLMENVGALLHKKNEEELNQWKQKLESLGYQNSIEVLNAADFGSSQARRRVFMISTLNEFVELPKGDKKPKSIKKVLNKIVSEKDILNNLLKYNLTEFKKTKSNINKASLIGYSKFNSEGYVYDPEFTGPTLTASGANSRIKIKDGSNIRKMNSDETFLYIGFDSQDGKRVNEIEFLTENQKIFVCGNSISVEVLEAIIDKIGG

pUC-618 PCR fragment (618 bp)
activity [1]: 70%
activity [2]: 70%
